# Data: patent US7662583B2, “Bioreactor containing cells expressing glycosyltransferase nucleic acids isolatable from Arabidopsis” (The University of York, priority 2003, dated 2010)
# B1: UGT73B3: Arabidopsis recombinant glycosyltransferase (protein, UniProt Q8W491 1-481, looked up)
# UDP-glycosyltransferase 73B3: MSSDPHRKLHVVFFPFMAYGHMIPTLDMAKLFSSRGAKSTILTTPLNSKIFQKPIERFKNLNPSFEIDIQIFDFPCVDLGLPEGCENVDFFTSNNNDDRQYLTLKFFKSTRFFKDQLEKLLETTRPDCLIADMFFPWATEAAEKFNVPRLVFHGTGYFSLCSEYCIRVHNPQNIVASRYEPFVIPDLPGNIVITQEQIADRDEESEMGKFMIEVKESDVKSSGVIVNSFYELEPDYADFYKSVVLKRAWHIGPLSVYNRGFEEKAERGKKASINEVECLKWLDSKKPDSVIYISFGSVACFKNEQLFEIAAGLETSGANFIWVVRKNIGIEKEEWLPEGFEERVKGKGMIIRGWAPQVLILDHQATCGFVTHCGWNSLLEGVAAGLPMVTWPVAAEQFYNEKLVTQVLRTGVSVGAKKNVRTTGDFISREKVVKAVREVLVGEEADERRERAKKLAEMAKAAVEGGSSFNDLNSFIEEFTS
# Columns and labels:
# [1] = Solubility of quercetin under buffer conditions used; assay type: physicochemical; conditions: buffer conditions used in the fermenter
# Protocol: In order to explore the potential of the whole-cell biocatalysts for large-scale production of glucosides in the absence of added UDP-glucose, transformed bacterial cells were cultured in a fermenter. This process enabled conditions to be controlled tightly throughout the production cycle and a direct comparison to be made of the efficiency of conversion of whole-cell UGT biocatalysis in a simple culture flask and an optimised fermenter system. UGT73B3 was chosen for the analysis, since preliminary experiments (Table 2) had shown formation of a single product, the 3-O-glucoside, at levels of 8.96 μg/ml following 24 h incubation. […] The Figure also illustrates the final level of glucoside was much higher than the soluble aglycone at time 0 h.
# [2] = Whole-cell biocatalyst assay, E. coli expressing UGT in culture medium; assay type: cell-based; conditions: E. coli, 2x YT medium, 0.1 mM IPTG, 0.1 mM quercetin, 24 h, no added UDP-glucose
# Protocol: FIG. 14 Whole-cell biocatalyst assay using UGT71C1. E. coli cells expressing recombinant were used in the biocatalyst assay. After incubation with 0.1 mM quercetin and 0.1 mM IPTG, cells were collected by centrifugation, extracted with 80% methanol and both the cell extracts (pellet) and culture medium (supernatant) were analysed using HPLC. (A) Changes in the combined amounts of aglycone/glucoside over a time-course of 0-48 h. (B) Changes in the level of different glucosides and aglycone in the culture medium over the same time-course.
# Using the foundation established in the preceding example, we went on to investigate the potential of E. coli expressing plant UGTs as whole-cell biocatalysts to synthesise glucosides of quercetin. In the first instance, we used E. coli grown in 75 ml of standard culture medium. […] Table 2 describes results in which 7 different UGTs are expressed in E. coli and the identity and quantity of different glucosides recovered in the medium were analysed by HPLC. […] There was considerable variation in the level of different glucosides synthesised by the cells, although even under these non-optimised conditions, each of the four monoglucosides and two di-O-glucosides could be formed.
# [3] = Whole-cell bioreactor assay in fermentor system; assay type: cell-based, E. coli
# Protocol: A 6 L glass autoclavable fermentor system (Applikon Biotechnology Ltd.) was used for large-scale analysis of UGT whole-cell biocatalysts. E. coli BL21 overnight culture (40 ml) expressing UGT was transferred into the fermentor system containing 2 L of LB medium previously equilibrated at 30° C., pH 7.4. The dissolved O2 level was maintained at 95% for 1 h and was decreased to 60% throughout the remaining process. When the culture reached an optical density at 0.2, the temperature was lowered to 20° C. 0.1 mM of isopropyl-1-thio-β-D-galactopyranoside and 2 g of quercetin were added after the bacterial culture reached an optical density at 0.6. Samples were harvested at intervals and the bacterial cells were removed by centrifugation. The resulting supernatant fractions (culture medium) were analysed with HPLC.
# In order to explore the potential of the whole-cell biocatalysts for large-scale production of glucosides in the absence of added UDP-glucose, transformed bacterial cells were cultured in a fermenter. This process enabled conditions to be controlled tightly throughout the production cycle and a direct comparison to be made of the efficiency of conversion of whole-cell UGT biocatalysis in a simple culture flask and an optimised fermenter system. […]
# [4] = UGT enzyme reaction with quercetin (recombinant UGTs, HPLC); assay type: biochemical, Arabidopsis; conditions: 0.5 mM quercetin, 5 mM UDP-glucose, 30° C.
# Summary of the method: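 Recombinant Arabidopsis UGTs (2 μg) incubated with 0.5 mM quercetin and 5 mM UDP-glucose in 100 mM Tris-HCl pH 7.0 at 30 °C for 1 h. Quercetin glucosides separated from aglycone by reverse-phase C18 HPLC (acetonitrile gradient, 0.1% TFA), detected at 370 nm.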
Molecule,solubility [1],Culture medium (μg/ml in supernatant) 3-O-glc [2],"yield of 3-O-glucoside, fermenter versus culture flask ([3]; 99.3 μg/ml at 20 h versus 8.96 μg/ml at 24 h)","yield of 3-O-glucoside in the culture ([3]; fermenter system, 20 h)",Specific activity (nkat/mg protein) 3-O-glc ([4]; quercetin glucosylated at 3-OH),Specific activity (nkat/mg protein) 3′-O-glc ([4]; quercetin glucosylated at 3′-OH),Specific activity (nkat/mg protein) 4′-O-glc ([4]; quercetin glucosylated at 4′-OH),Specific activity (nkat/mg protein) 7-O-glc ([4]; quercetin glucosylated at 7-OH)
"O=c1c(O)c(-c2ccc(O)c(O)c2)oc2cc(O)cc(O)c12 [Quercetin, quercetin]",relatively insoluble,–,–,–,–,–,–,–
B1,–,8.96 µg/mL,10 fold,99.3 µg/mL,1.57 nkat/mg protein,— (Activity lower than 0.02 nkat/mg protein has been considered as trace activity and is not shown in the Table.),— (Activity lower than 0.02 nkat/mg protein has been considered as trace activity and is not shown in the Table.),— (Activity lower than 0.02 nkat/mg protein has been considered as trace activity and is not shown in the Table.)
